{"source": "the nanobody polyreactivity screen of Harvey et al. (2022)"}
{"assay": "yeast display, Sf9 membrane polyspecificity reagent, FACS + sequencing; frameworks hold sequencing errors", "outline": "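A nanobody's polyreactivity label depends on the gate it was sorted from. Yeast display cells were stained with 10% biotinylated, detergent-solubilized Sf9 membrane reagent for 1 hour at 4 °C, enriched on streptavidin microbeads and sorted by FACS. The low and high (top ~1%) gates were set on anti-HA fluorescence for expression and streptavidin fluorescence for reagent binding.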"}
{"sequence": "QVQLVESGGGLVQAGGSLRISCAASGRIFIYNAMGWYRQAPGKERELVAAINRSGVSTHYADSVKGRFTISRDNAKNTVYLQMNSLIPEDTAVYYCARTVYGARSYDYWGQGTQVTVSS", "polyreactivity (PSR sort gate)": "low polyreactivity"}
{"sequence": "QVQLVESGGGLVQAGGSLRISCAASGRIFLRNDMGWYRQAPGKERELVAGISSDGSTYYADSVKGRFTISRDNAKNTVYLQMNSLKPEDTAVYYCAAERWGNPTDYQFWRPYDYWGQGTQVTVSS", "polyreactivity (PSR sort gate)": "low polyreactivity"}
{"sequence": "QVQLVESGGGLVQAGGSLRISCAASGRIFQHYAMGWYRQAPGKERELVAAISWRGGSTYYADSVKGRFTISRDNAKNTVFLLMNSLKPEDTAVYYCAAGYRGRIPGFDYWGQGTQVTVSS", "polyreactivity (PSR sort gate)": "high polyreactivity"}
{"sequence": "QVQLVESGGGLVQAGGSLRISCAASGRIFSYNAMGWYRQAPGKERELVAAITTGGSTYYADSVKGRFTISRDNAKNTVYLQMNSLKPEDTAVYYSIKLGYYYDRRYDYWGQGTQVNVSS", "polyreactivity (PSR sort gate)": "high polyreactivity"}
{"sequence": "QVQLVESGGGLVQAGGSLRISCAASGRTFAFYAMGRYRQAPGKERELVACISSSGDRTYYADSVKGRFTISRDNAKNTVYLQMNSLKPEDTAVYYCAARWRYTYYYWGQGTQVTVSS", "polyreactivity (PSR sort gate)": "high polyreactivity"}
{"sequence": "QVQLVESGGGLVQAGGSLRISCAASGRTFPVNAMGWYRQAPGKERELVAAITWSGDSTYYADSVKGRFTISCDNAKNTVYLQMNSLKPEDTAVYYCAAAYRYGTLYYYWGQGTQVTVSS", "polyreactivity (PSR sort gate)": "low polyreactivity"}
{"sequence": "QVQLVESGGGLVQAGGSLRISCAASGRTFPWYAMGWYRPAPGKERELVADITWSGGSTYYADSVKGRFTISRDNAKNTVYLQMNSLKPEDTAVYYCATRVLFWYRKYPGRPLTKYDYWGQGTQVTVSS", "polyreactivity (PSR sort gate)": "high polyreactivity"}
{"sequence": "QVQLVESGGGLVQAGGSLRISCAASGRTFRFYVMGWYRKAPGKERELVAAISRGGGSTYYADSVKGRFTISRDNAKNTVYLQMNSLKPEDTAVYYCNAVTSGKKYVADYNYWGQGTQVTVSS", "polyreactivity (PSR sort gate)": "high polyreactivity"}
{"sequence": "QVQLVESGGGLVQAGGSLRISCAASGRTFRTYAMGWYRQAPGKERELVAAISYSDGSTYYADSVKGRFTISRDNAKNTVYLQMNSLKPEDTAVYYCAIEYEDPYYIRYQVGYDFDYWGQGTQVTVSS", "polyreactivity (PSR sort gate)": "low polyreactivity"}
{"sequence": "QVQLVESGGGLVQAGGSLRISCAASGRTFRWYAMGWYRQAPGKERELVAAISWNGGSTYYADSVKGRFTISRDNAKNTVYLQMNSLKPEDTAVYYCAVKAGPSRPYYSWGQGTQVTVSS", "polyreactivity (PSR sort gate)": "high polyreactivity"}
{"sequence": "QVQLVESGGGLVQAGGSLRISCAASGRTFYPYAMGWYRQAPGKEREFVAAITLTGDSTYYADSVKGRFTISRDNAKNTVYLQMNSLKPEDTAVYYCNAGVGARESDYWGQGTQLTVSS", "polyreactivity (PSR sort gate)": "low polyreactivity"}
{"sequence": "QVQLVESGGGLVQAGGSLRISCAASGRTFYWYAMGWYRQAPGKERELVAAISAGGGRTYCADSVKGRFTISRDNAKNTVYLQMNSLKPEDTAVYYCAADFQRGAKYTYDFWGQGTQVTVSS", "polyreactivity (PSR sort gate)": "high polyreactivity"}
{"sequence": "QVQLVESGGGLVQAGGSLRISCAASGSICNINAMGWYRQAPGKERELVAPISQSDGSTYYADSVKGRFTISRDNAKNTVYLQMNSLKPEDTAVYYCSADAYVLFYGDWYEFDYWGQGTQVTVSS", "polyreactivity (PSR sort gate)": "high polyreactivity"}
{"sequence": "QVQLVESGGGLVQAGGSLRISCAASGSIFAWNAMGWYRQAPGKERELVAAISRSGGRTYYADSVKGRFTISRDNAKNTVYLQMNSLKPEDTAVYYCNAYGLRWASRLGYDYWGQGTQVTVSS", "polyreactivity (PSR sort gate)": "high polyreactivity"}
{"sequence": "QVQLVESGGGLVQAGGSLRISCAASGSIFEQYAMAWYRQAPGKERELVAAISKRGTSTYYAVSVKGRFTISRDNAKNTVYLQMNCLKPEDTAVYYCAATNRWYYRDAAAVYAFGYWGQGTQVTVSS", "polyreactivity (PSR sort gate)": "high polyreactivity"}
{"sequence": "QVQLVESGGGLVQAGGSLRISCAASGSIFGVYAMGWYRQAPGKERELVAAIRSGGRTYYADSVKGRFTISRDNAKNTVYLQMNSLKPEDTAVYYCNAAFSSRVGRVQFYDYDYWGQGTQVTVSW", "polyreactivity (PSR sort gate)": "high polyreactivity"}
{"sequence": "QVQLVESGGGLVQAGGSLRISCAASGSIFLSNMGWYRQAPGNERELVAAITIGGSTDYADSVKGRFTISRDNAKNTVYLQMNSLKPEDTAVYYCNADNPYSDGADSLGNYWGQGTQVTVSS", "polyreactivity (PSR sort gate)": "low polyreactivity"}
